Results from EP2225268B1.

Assays:
[1] = biological target: Native NGAL purchased from Diagnostics Development (Uppsala, Sweden), non-reduced (UniProt P80188); experiment: … sandwich CMIA, capture HYB 211-01, detection acridinium-HYB 211-02; NGAL 250 ng/mL
[2] = biological target: Wild-type recombinant human NGAL dimer calibrators treated with DTT (human) (UniProt P80188); experiment: as above
[3] = biological target: Wild-type recombinant human NGAL dimer expressed in CHO cells (human) (UniProt P80188); experiment: as above
[4] = biological target: Wild-type recombinant human NGAL monomer expressed in CHO cells (human) (UniProt P80188); experiment: as above
[5] = biological target: Native NGAL (plus DTT - reduced) (UniProt P80188); experiment: … sandwich CMIA, capture HYB 211-01, detection acridinium-HYB 211-02; same sample reduced with DTT
[6] = biological target: Wild-type recombinant human NGAL dimer calibrators treated with DTT (human) (UniProt P80188); experiment: … sandwich CMIA, capture HYB 211-01, detection acridinium-HYB 211-02; calibrator D, NGAL 250 ng/mL
[7] = biological target: Wild-type recombinant human NGAL dimer expressed in CHO cells (human) (UniProt P80188); experiment: as above
[8] = biological target: Wild-type recombinant human NGAL monomer expressed in CHO cells (human) (UniProt P80188); experiment: as above
[9] = biological target: Wild-type recombinant human NGAL dimer calibrators treated with DTT (human) (UniProt P80188); experiment: … sandwich CMIA, capture HYB 211-01, detection acridinium-HYB 211-02; calibrator F, NGAL 1000 ng/mL
[10] = biological target: Wild-type recombinant human NGAL dimer expressed in CHO cells (human) (UniProt P80188); experiment: as above
[11] = biological target: Wild-type recombinant human NGAL dimer calibrators treated with DTT (human) (UniProt P80188); experiment: … sandwich CMIA, capture HYB 211-01, detection acridinium-HYB 211-02; curve fit with monomer calibrators; target 5 ng/mL
[12] = biological target: Wild-type recombinant human NGAL dimer expressed in CHO cells (human) (UniProt P80188); experiment: as above
[13] = biological target: Wild-type recombinant human NGAL monomer expressed in CHO cells (human) (UniProt P80188); experiment: as above
[14] = biological target: Wild-type recombinant human NGAL dimer calibrators treated with DTT (human) (UniProt P80188); experiment: … sandwich CMIA, capture HYB 211-01, detection acridinium-HYB 211-02; curve fit with monomer calibrators; target 250 ng/mL
[15] = biological target: Wild-type recombinant human NGAL dimer expressed in CHO cells (human) (UniProt P80188); experiment: as above
[16] = biological target: Wild-type recombinant human NGAL monomer expressed in CHO cells (human) (UniProt P80188); experiment: as above
[17] = biological target: Wild-type recombinant human NGAL dimer expressed in CHO cells (human) (UniProt P80188); experiment: … sandwich CMIA, capture 1-2322-455, detection acridinium-1-903-430; NGAL 1000 ng/mL
[18] = biological target: Wild-type recombinant human NGAL dimer calibrators with TCEP in the reaction mixture (human) (UniProt P80188); experiment: … sandwich CMIA, capture 1-2322-455, detection acridinium-1-903-430; TCEP in reaction; NGAL 5 ng/mL
[19] = biological target: Wild-type recombinant human NGAL dimer expressed in CHO cells (human) (UniProt P80188); experiment: … sandwich CMIA, capture 1-2322-455, detection acridinium-1-903-430; curve fit with monomer calibrators; target 600 ng/mL
[20] = biological target: Wild-type recombinant human NGAL monomer expressed in CHO cells (human) (UniProt P80188); experiment: as above
[21] = biological target: Wild-type recombinant human NGAL dimer expressed in CHO cells (human) (UniProt P80188); experiment: … sandwich CMIA, capture 1-2322-455, detection acridinium-1-903-430; curve fit with monomer calibrators; target 1000 ng/mL
[22] = biological target: Wild-type recombinant human NGAL monomer expressed in CHO cells (human) (UniProt P80188); experiment: as above
[23] = biological target: Wild-type recombinant human NGAL dimer calibrators with TCEP in the reaction mixture (human) (UniProt P80188); experiment: … sandwich CMIA, capture 1-2322-455, detection acridinium-1-903-430; TCEP in reaction; curve fit with monomer calibrators; target 50 ng/mL
[24] = biological target: Wild-type recombinant human NGAL dimer calibrators with TCEP in the reaction mixture (human) (UniProt P80188); experiment: … sandwich CMIA, capture 1-2322-455, detection acridinium-1-903-430; TCEP in reaction; curve fit with monomer calibrators; target 250 ng/mL
[25] = biological target: Wild-type recombinant human NGAL monomer expressed in CHO cells (human) (UniProt P80188); experiment: … sandwich CMIA, capture 1-2322-455, detection acridinium-1-903-430; monomer calibrator plus TCEP; curve fit with monomer calibrators; target 1000 ng/mL

anti-NGAL antibody HYB 211-01 from AntibodyShop A/S, Gentofte, Denmark
RLUs [1]: 620000 RLUs
RLUs [2]: 378000 RLUs
RLUs [3]: 142000 RLUs
RLUs [4]: 396000 RLUs
NGAL concentration detected [5]: 23.8 ng/mL
RLUs [6]: 378000 RLUs
RLUs [7]: 142000 RLUs
RLUs [8]: 396000 RLUs
RLUs [9]: 855000 RLUs
RLUs [10]: 390000 RLUs
Curve Fit Results [11]: 4.7 ng/mL
Curve Fit Results [12]: 1.4 ng/mL
Curve Fit Results [13]: 5.1 ng/mL
Curve Fit Results [14]: 236 ng/mL
Curve Fit Results [15]: 71.8 ng/mL
Curve Fit Results [16]: 251 ng/mL

B1: antibody produced by murine hybridoma cell line 1-2322-455 having ATCC Accession No. PTA-8024 (antibody, V domains shown)
VH: EVQLVESGGGLVQPGGSLKLSCAASGFTFNNYYMSWVRQTPERRLEWVAYISSSGGSTYYSDSVRGRFTISRDTARNTLYLQMTSLKSEDTAMYYCARHFGDYSYFDYWGQGTTLTVSS
VL: DIQMTQSPASLSASVGETVTITCRASENFYSYLAWYQQKQGKSPQLLVYNAKTLAEGVPSRFSGSGSGTQFSLKINSLQPEDFGTYYCQHHYDIPLTFGAGTKLELKR
RLUs [17]: 993000 RLUs
RLUs [18]: 15000 RLUs
Curve Fit Results [19]: 173 ng/mL
Curve Fit Results [20]: 591 ng/mL
Curve Fit Results [21]: 294 ng/mL
Curve Fit Results [22]: 1010 ng/mL
Curve Fit Results [23]: 24.5 ng/mL
Curve Fit Results [24]: 126 ng/mL
Curve Fit Results [25]: 1030 ng/mL
